In test [1] the target is T1, cynomolgus monkey CD3 on cynomolgus monkey T lymphocytes (cynoPBMC) (cynomolgus monkey, UniProt Q95LI5 22-198).
T1 construct: whole, on cells; also called cynoCD3; cell surface antigen CD3 on cynomolgus monkey T cells
Briefly: flow cytometry, binding rate on T cells in cynomolgus monkey PBMC, detection with anti-human Ig κ light chain. On the procedure: (§1) CynoPBMC Preparation: Whole blood samples from cynomolgus monkeys were diluted with PBS buffer (Gibco), centrifuged by density gradient centrifugation using 90% Ficoll-Paque isolation buffer (obtained by diluting Ficoll-Paque with PBS, Ficoll-Paque, GE Healthcare) to obtain PBMC, washed twice with PBS, then centrifuged at room temperature, 1000 g for 10 min. Cells were collected, and resuspended in RPM′ 1640 Medium (Gibco) containing 10% FBS.
(§2) About 3.6×10⁵ PBMCs (huPBMC or cynoPBMC) per well were added to a 96-well plate. […] Cells were washed with FACS buffer once, resuspended in 50 μL FACS buffer, supplemented with Antibody PE Mouse Anti-Human CD20 (BD Pharmingen™), FITC Mouse Anti-Human CD4 (BD Pharmingen™), and APC Mouse anti-Human Ig, κ Light Chain (BD Pharmingen™), and incubated at room temperature for 45 min. 200 μL FACS buffer was finally added, and the samples were analyzed using ACCURI® C6 Cytometer (BD Biosciences).
(§3) Binding rate was plotted against the y-axis, and drug concentration was plotted against the x-axis. The curve was fitted using a 4-parameter logistic model to determine EC50.

Test [2] deals with T2, cynomolgus monkey CD19 on cynomolgus monkey B lymphocytes (cynoPBMC) (cynomolgus monkey, UniProt A0A2K5W8L9 20-557).
T2 construct: whole, on cells; also called cynoCD19; cell surface antigen CD19 on cynomolgus monkey B cells
T2 sequence: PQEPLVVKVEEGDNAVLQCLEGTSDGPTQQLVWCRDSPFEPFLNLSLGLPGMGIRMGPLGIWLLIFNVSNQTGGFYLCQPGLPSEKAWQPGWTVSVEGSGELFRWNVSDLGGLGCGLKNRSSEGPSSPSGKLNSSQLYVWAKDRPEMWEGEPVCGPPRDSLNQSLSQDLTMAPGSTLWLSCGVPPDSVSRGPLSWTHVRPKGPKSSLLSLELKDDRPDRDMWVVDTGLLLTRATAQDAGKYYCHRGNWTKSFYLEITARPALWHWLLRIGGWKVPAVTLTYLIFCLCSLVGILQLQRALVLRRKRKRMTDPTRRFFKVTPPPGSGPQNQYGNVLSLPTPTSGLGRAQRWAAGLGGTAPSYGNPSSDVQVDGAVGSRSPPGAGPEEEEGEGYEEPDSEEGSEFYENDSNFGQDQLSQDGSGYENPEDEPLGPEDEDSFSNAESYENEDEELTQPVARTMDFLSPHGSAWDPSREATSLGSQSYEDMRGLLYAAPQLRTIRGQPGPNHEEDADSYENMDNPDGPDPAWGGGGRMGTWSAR
The experiment in a line: flow cytometry, binding rate on B cells in cynomolgus monkey PBMC, detection with anti-human Ig κ light chain. On the procedure:
as §1, §2, §3

The target in test [3] is T3, Cynomolgus/Rhesus CD19 Protein (Fc Tag) (Sino Biological) (cynomolgus monkey / rhesus, UniProt F7F486 20-292 (rhesus entry)).
T3 construct: Bought reagent; also called cynoCD19.Fc
T3 sequence: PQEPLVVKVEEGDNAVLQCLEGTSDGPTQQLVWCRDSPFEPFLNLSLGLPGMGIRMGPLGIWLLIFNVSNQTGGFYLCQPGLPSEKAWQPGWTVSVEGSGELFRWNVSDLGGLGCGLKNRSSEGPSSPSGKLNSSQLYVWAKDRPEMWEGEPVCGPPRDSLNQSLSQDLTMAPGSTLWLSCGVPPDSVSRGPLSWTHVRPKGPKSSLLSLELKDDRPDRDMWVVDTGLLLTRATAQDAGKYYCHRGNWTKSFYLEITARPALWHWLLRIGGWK
The experiment in a line: BLI (Octet QKe), antigen-Fc captured on AHC sensor, ITAB2009 in solution. On the procedure: (§4) The human CD3 antigen construct (CD3εAA 1-27.Fc) and the cynomolgus monkey CD3 antigen construct (cynoCD3εAA 1-27.Fc) each consists of a peptide of amino acid residues 1-27 of CD3ε connected to a human IgG Fc. The expression of the antigen constructs is described in U.S. Pat. No. 8,846,042. The CD3 or CD19 antigen constructs (Cynomolgus/Rhesus CD19 Protein (Fc Tag), Sino Biological. Inc.; Recombinant Human CD19 Fc Chimera, R&D Systems. Inc.) were diluted to 0.02 mg/mL with dilution buffer (PBS), and then immobilized on an anti-Human Fc capture (AHC) biosensor. […] The control wells containing only PBS were also set up. The detection results were analyzed using ForteBio Data Analysis software.
In general terms: Biolayer interferometry detects binding as a change in optical thickness at a sensor tip.

Test [4] addresses T4, cynomolgus monkey CD3 antigen construct cynoCD3εAA 1-27.Fc (cynomolgus monkey; human, UniProt Q95LI5 22-48).
T4 construct: range 1-27
T4 chain (looked up): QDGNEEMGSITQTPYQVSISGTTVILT
The test is described as above. On the procedure: as §4

Test [5] deals with T5, Recombinant Human CD19 Fc Chimera (R&D Systems) (human, UniProt P15391 20-291).
T5 construct: Bought reagent; also called huCD19.Fc; not shown: Fc of the bought chimera
T5 sequence (looked up): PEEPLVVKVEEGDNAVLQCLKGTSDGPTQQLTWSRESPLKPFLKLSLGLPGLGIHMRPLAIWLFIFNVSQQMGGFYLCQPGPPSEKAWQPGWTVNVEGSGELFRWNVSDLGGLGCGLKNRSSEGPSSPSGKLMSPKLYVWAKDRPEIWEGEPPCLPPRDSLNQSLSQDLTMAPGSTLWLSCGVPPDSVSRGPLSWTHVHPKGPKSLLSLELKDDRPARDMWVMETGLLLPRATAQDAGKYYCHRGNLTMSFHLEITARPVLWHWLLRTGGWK
Described as above. On the procedure:
as §4

Test [6] addresses T6, human CD3 on human T lymphocytes (huPBMC) (human, UniProt P07766 23-207).
T6 construct: whole, on cells; also called huCD3; cell surface antigen CD3 on human T cells
Briefly: flow cytometry, binding rate on T cells in human PBMC, detection with anti-human Ig κ light chain. On the procedure: as §2, §3
A general note: A flow cytometer gives signals particle by particle.

The target in test [7] is T7, human CD19 on cells (human B lymphocytes; Raji, Daudi and Reh tumor cells) (human, UniProt P15391 20-556).
T7 sequence (looked up): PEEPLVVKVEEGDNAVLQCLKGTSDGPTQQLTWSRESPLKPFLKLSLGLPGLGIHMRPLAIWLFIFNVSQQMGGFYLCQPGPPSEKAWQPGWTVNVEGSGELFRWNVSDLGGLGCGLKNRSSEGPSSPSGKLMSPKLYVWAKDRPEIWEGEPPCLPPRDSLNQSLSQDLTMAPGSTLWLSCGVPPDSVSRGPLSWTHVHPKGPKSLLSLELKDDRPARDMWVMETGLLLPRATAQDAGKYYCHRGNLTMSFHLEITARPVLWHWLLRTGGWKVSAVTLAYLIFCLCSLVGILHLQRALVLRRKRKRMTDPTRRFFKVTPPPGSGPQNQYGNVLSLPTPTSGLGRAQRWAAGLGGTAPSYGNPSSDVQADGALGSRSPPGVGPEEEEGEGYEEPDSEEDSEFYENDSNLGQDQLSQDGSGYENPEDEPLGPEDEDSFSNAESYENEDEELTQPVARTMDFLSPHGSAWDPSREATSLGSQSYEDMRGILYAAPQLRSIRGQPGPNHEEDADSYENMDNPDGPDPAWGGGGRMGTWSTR
Briefly: cell-based or functional assay.

The target of test [8] is T7, human CD19 on cells (human B …). Briefly: flow cytometry, binding rate on B cells in human PBMC, detection with anti-human Ig κ light chain. On the procedure:
as §2, §3

Results on 1 molecule are retold here after patent US20210301018A1 (ITABMED HK, published 2021).

T6 sequence (P07766 23-207): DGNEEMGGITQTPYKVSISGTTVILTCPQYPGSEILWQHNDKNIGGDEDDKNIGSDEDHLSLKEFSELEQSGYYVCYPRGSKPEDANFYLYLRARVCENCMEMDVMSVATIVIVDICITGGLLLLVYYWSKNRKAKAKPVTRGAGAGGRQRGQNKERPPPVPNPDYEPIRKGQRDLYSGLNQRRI

B1: CD19×CD3 bispecific antigen binding protein ITAB2009 (bispecific antibody)
chain: EVQLVESGGGLVQPGGSLRLSCAASGFTFNTYAMNWVRQAPGKGLEWVARIRSKYNNYATYYADSVKDRFTISRDDSKNTLYLQMNSLRAEDTAVYYCVRHGNFGNSYVSWFAYWGQGTMVTVSSGGGGSGGGGSGGGGSQAVVTQEPSLTVSPGGTVTLTCRSSTGAVTTSNYANWVQQKPGQAPRGLIGGTNKRAPGTPARFSGSLLGGKAALTLSGVQPEDEAEYYCALWYSNLWVFGGGTKLTVLSGGGGSQVQLVQSGPELIKPGGSVKMSCKASGYTFTSYVMHWVRQKPGQGLEWIGYINPYNDGTKYNEKFKGRATLTSDKSSSTAYMELSSLRSEDSAVYYCARGTYYYGSRVFDYWGQGTTVTVSSASTKGPSVFPLAPSSKSTSGGTAALGCLVKDYFPEPVTVSWNSGALTSGVHTFPAVLQSSGLYSLSSVVTVPSSSLGTQTYICNVNHKPSNTKVDKKVEPKSCPPCS
light: DVVMTQSPSSIPVTLGESVSISCRSSKSLQNVNGNTYLYWFQQRPGQSPQLLIYRMSNLNSGVPDRFSGSGSGTDFTLRISGVEPEDVGVYYCMQHLEYPITFGAGTKLEIKRTVAAPSVFIFPPSDEQLKSGTASVVCLLNNFYPREAKVQWKVDNALQSGNSQESVTEQDSKDSTYSLSSTLTLSKADYEKHKVYACEVTHQGLSSPVTKSFNRGECPPCS
notes: Anti-CD3 scFv joined to the N-terminus of the VH of the anti-CD19 Fab; also called CD19×CD3 BSAP ITAB2009; ITB2009
For orientation: EC50 means the concentration giving half of the maximal effect. In general, Kd refers to the equilibrium constant for the complex coming apart. As to B1, the 50% effective concentration (EC50) in test [1] was found to be 115 ng/mL; in test [2] it was 1900 ng/mL; in test [6], 204 ng/mL; in test [8] it was 35 ng/mL. Also, the results for the dissociation constant (Kd) in test [3], in test [4] and in test [5] were 29.6 nM, 12.9 nM and 18.2 nM, respectively. In addition, in test [7], the “EC50 of CD19×CD3 BSAP mediated human PBMC cytotoxicity against tumor cells (Daudi)” value worked out at 0.06 ng/mL. Moreover, in test [7], the “EC50 of CD19×CD3 BSAP mediated human PBMC cytotoxicity against tumor cells (Raji)” value turned out to be 0.04 ng/mL. Further, in test [7], the “EC50 of CD19×CD3 BSAP mediated human PBMC cytotoxicity against tumor cells (Reh)” value came out at 0.24 ng/mL.
